Experimental data reported in patent publication US20030224390A1, “Method of identifying conformation-sensitive binding peptides and uses thereof” (Karo Bio AB, priority 2000, published 2003).

Assays:
[1] = biological target: T1, glucocorticoid receptor (Homo sapiens, UniProt P04150); test: Mammalian cell based peptide/GR interaction assay in Huh-7 cells, 96-/384-well luciferase
T1 construct: expressed in transfected cells; host or cells: Huh-7 cells
T1 sequence (P04150 1-777): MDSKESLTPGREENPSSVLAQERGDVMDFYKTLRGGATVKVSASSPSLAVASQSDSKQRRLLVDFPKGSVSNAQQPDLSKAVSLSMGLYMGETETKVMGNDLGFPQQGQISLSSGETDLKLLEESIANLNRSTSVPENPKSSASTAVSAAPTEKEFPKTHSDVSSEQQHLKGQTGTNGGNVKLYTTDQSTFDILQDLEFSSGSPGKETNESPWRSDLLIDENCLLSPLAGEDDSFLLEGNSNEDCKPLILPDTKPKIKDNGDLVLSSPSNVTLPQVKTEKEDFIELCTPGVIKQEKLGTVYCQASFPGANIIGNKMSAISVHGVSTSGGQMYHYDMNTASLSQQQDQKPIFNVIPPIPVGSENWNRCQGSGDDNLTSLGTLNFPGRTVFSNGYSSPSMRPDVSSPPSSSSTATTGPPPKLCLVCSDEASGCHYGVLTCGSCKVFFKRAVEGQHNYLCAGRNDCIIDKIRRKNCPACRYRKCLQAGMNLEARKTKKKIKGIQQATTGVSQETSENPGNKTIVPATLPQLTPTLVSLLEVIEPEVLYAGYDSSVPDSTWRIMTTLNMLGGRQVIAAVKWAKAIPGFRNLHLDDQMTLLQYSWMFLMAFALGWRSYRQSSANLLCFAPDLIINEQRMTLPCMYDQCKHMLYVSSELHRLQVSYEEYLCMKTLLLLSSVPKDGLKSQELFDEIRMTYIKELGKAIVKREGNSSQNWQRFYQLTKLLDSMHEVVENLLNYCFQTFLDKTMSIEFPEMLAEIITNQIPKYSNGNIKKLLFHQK
Excerpt: (§1) We have performed a limited amount of in vivo screenings for peptides to GR in the yeast based system using full-length receptor and either dexamethasone or medroxyprogesterone acetate as ligands. We have a single peptide sequence that we have followed up on based on its specificity profile in yeast. This peptide was isolated on MPA liganded GR, and is termed GRMPA. Its sequence is as follows: […] (SEQ ID NO:268).
We have isolated numerous peptides using phage display to the GR ligand binding domain and have formatted cell based assays in mammalian cells for screening large compound sets. We have formatted the assay as stated above for 96-well plates and for 384-well plates. To format the assay to 384-well plates the number of cells per well were scaled down to 5,000 Huh-7 cells per well. Similar ratios of DNA constructs and lipection reagents were used in both assays for transfections prior to seeding the cells into the assay plates. We have also carried out a screen of a 60,000 compound set with one of the phage display isolated peptides in this mammalian cell based format. This peptide interacts with the glucocorticoid receptor in the presence of both agonists (e.g. fluticasone propionate and dexamethasone) and antagonists (RU486). For the compound screen cells were transfected in suspension with DNA constructs as described above prior to seeding 5,000 cells per well. […]

[2] = biological target: T2, Glucocorticoid Receptor (GR) (Homo sapiens, UniProt P04150); test: Yeast based two-hybrid system with full-length GR (Example 503); assay type: cell-based
T2 construct: peptides to GR in the yeast based system using full-length receptor; expressed in transfected cells; host or cells: yeast
T2 sequence (P04150 1-777): T1 sequence (P04150 1-777)
Excerpt: as §1

[3] = biological target: ERβ (Homo sapiens, UniProt Q92731); test: Phage ELISA fingerprint: peptide binding to immobilized ER β with modulator present (Table 14B); conditions: nafoxidine (10 μM)
[4] = biological target: T3, ER α (Homo sapiens, UniProt P03372); test: Phage ELISA fingerprint: peptide binding to immobilized ER α with modulator present (Table 14A); conditions: ICI 182,780 (1 μM)
T3 sequence (P03372 1-595): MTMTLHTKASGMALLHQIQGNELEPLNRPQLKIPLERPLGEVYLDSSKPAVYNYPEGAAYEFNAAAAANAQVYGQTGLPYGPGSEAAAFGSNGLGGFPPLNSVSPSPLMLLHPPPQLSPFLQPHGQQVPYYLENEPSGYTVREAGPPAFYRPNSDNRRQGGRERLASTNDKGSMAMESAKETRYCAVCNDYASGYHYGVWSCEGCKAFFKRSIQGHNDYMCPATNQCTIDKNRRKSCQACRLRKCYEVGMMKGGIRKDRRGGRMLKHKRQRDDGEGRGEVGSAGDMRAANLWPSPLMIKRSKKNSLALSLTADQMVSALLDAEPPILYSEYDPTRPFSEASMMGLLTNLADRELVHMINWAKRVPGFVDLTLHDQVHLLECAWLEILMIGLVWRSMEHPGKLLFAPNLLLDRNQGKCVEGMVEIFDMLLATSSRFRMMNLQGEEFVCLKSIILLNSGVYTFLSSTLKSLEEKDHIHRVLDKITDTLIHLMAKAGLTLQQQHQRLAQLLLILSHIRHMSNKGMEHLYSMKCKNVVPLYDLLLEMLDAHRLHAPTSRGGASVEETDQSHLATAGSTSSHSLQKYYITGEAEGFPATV

[5] = biological target: T4, ER β (immobilized, in vitro phage assays), Q92731; test: phage ELISA; raloxifene 1 µM
T4 chain: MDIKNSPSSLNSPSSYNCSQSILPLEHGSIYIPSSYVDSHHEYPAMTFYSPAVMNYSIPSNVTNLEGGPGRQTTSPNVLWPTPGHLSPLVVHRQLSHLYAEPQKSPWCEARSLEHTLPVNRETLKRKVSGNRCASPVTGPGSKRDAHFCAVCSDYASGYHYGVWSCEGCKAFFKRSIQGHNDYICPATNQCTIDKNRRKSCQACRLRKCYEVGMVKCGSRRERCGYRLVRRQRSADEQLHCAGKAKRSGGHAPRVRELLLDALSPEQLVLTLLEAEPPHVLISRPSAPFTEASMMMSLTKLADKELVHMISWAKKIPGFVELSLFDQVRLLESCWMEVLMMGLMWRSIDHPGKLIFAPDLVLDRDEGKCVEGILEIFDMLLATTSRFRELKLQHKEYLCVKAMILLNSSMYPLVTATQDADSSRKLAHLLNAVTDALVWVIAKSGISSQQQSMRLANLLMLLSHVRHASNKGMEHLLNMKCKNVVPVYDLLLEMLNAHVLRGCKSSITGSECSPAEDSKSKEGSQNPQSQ

[6] = biological target: T4, ER β (immobilized, in vitro phage …); test: phage ELISA; ICI 182,780 1 µM
[7] = biological target: T4, ER β (immobilized, in vitro phage …); test: phage ELISA; 4-OH tamoxifen 1 µM
[8] = biological target: T4, ER β (immobilized, in vitro phage …); test: phage ELISA; clomiphene 10 µM

EFVARYGQLLGWRHPCS [GRMPA]
Interaction with GR in the presence of all ligands (agonists, partial agonists, and antagonists) [1]: interacted
Interaction with GR in the presence of partial agonists ([2]; MPA, cortivazol, and deoxycorticosterone): interacted
Interaction with GR in the presence of antagonists ([2]; RU486): interacted
Interaction with GR in the presence of full agonists ([2]; fluticasone propionate and dexamethasone): not

SRLPPSVFSMCGSEVCLSR [9Tβ]
Class Specific Fingerprint on ERβ: peptide binding, Nafoxidine present [3]: 5
Class Specific Fingerprint on ERα: peptide binding, ICI 182,780 present [4]: 0

SSNHQSSRLIELLSR (modifications not checked) [Phage # 4 (Table 2)]
phage ELISA grade [5]: 0
phage ELISA grade [6]: 0
phage ELISA grade [7]: 0
phage ELISA grade [8]: 0
